Laboratory results from the DeepSol protein solubility set.

Assay: soluble on expression in E. coli; label from the status in PepcDB or PDB records

| Sequence | soluble on expression in E. coli |
| --- | --- |
| GAMATSESPDAYTESFGAHTIVKPAGPPRVGQPSWNPQRASSMPVNRYRPFAEEVEPIRLRNRTWPDRVIDRAPLWCAVDLRDGNQALIDPMSPARKRRMFDLLVRMGYKEIEVGFPSASQTDFDFVREIIEQGAIPDDVTIQVLTQCRPELIERTFQACSGAPRAIVHFYNSTSILQRRVVFRANRAEVQAIATDGARKCVEQAAKYPGTQWRFEYSPESYTGTELEYAKQVCDAVGEVIAPTPERPIIFNLPATVEMTTPNVYADSIEWMSRNLANRESVILSLHPHNDRGTAVAAAELGFAAGADRIEGCLFGNGERTGNVCLVTLGLNLFSRGVDPQIDFSNIDEIRRTVEYCNQLPVHERHPYGGDLVYTAFSGSHQDAINKGLDAMKLDADAADCDVDDMLWQVPYLPIDPRDVGRTYEAVIRVNSQSGKGGVAYIMKTDHGLSLPRRLQIEFSQVIQKIAEGTAGEGGEVSPKEMWDAFAEEYLAPVRPLERIRQHVDAADDDGGTTSITATVKINGVETEISGSGNGPLAAFVHALADVGFDVAVLDYYEHAMSAGDDAQAAAYVEASVTIASPAQPGEAGRHASDPVTIASPAQPGEAGRHASDPVTSKTVWGVGIAPSITTASLRAVVSAVNRAAR | soluble |
| FPAISEHFTEDYSSHTEQMLDLVLDSTDMRIEDGKRINPAFMFAAMLWYPLCALADKLMDQHNLCHYDAIMEASNIILDDQVRTIAIPRRHTATIREIWQLQLRLPRRNGKRAFRLMELNKFRAGFDFLEMRGEIEGGDTLKLAKWWETFQNAGREMRQAMAADLDGQAPKSGQRRRKTFRKKKSKPKS | not soluble |
| MGSDKIHHHHHHMKFEVASNVLLQHLQLIARVIASRSTLPILESVLFELEGDQLRLTAADMANRMSTELTVNNVGGENGSFAVPERILLEPLKELPDQPISFEINMETKAAEIAYSNGHYSFVVQDVSTYPVAASLSPEAIVSIVPAEALLSGLSATLFATSQDERRPIMTGVYLDFFEDKLVFVGSDGQILVKQEDANVQSRRRSAFCLPRKACLLLRNVLPRLEGDVTLTYDSNYLHIELGNYTLRARLLEGRYPNYNSVIPTSNPFSVKVDRAQLLSGAKRVSIFSNPATSMLRMEFTPAGIRLSANDIDFSVAAEEHVPAECPADINMRIGFKSDVFQTILQGMPSEEVIMTLADQTRAGLILPAENAPGISLCNLLLPMKLIGE | not soluble |
| GAQVSSQKVGAHENSNRAYGGSTINYTTINYYKDSASNAASKQDYSQDPSKFTEPLKDVLIKTAPALN | soluble |
| AIARPSSLRQYLDSVPLPPCQEQQPKASAELDHKACYLCHSLLMLAGVVVSCQDITPDQWGELQLLCMQLDRHISTQIRESPQAMHRTMLKDLATQTYIRWQELLTHCQPQAQYFSPWKDI | soluble |
| MSLYKVYGDYRSGNCYKIKLMLNLLGLPYEWQAVDILGGDTQTEAFLAKNPNGKIPVLELEDGTCLWESNAILNFLADGSQFLPSEPRLRTQVLQWQFFEQYSHEPYIAVARFIQLYEGLPEERREEYLKLHKRGYKALDVMEKQLSRTPYLVGEHYSIADIALYAYTHVADEGGFDLSRYPGIQAWMQRVQSHPRHVPMLDEGHHHHHH | soluble |
| MVMRYSLKQLAVFDAVATTGSVSQAAELLSLTQSATSMSLSQLEKMLGRSLFERHGKRMALTHWGVWLRPKAKKLIHDAQQIELGFYDQHLISGEISLGASQTAAEHLVPNLISNIDNDFPEIRISLGVKNTSGIIEGVLDYKYELGIIEGRCDDSRIHQEVFCTDHLIIVAAAHHPFAKHEKVSLAQLEQAKWVLREHGAGTRTIFDSAIHGKIPDLDVWREYEYVPVLRTLVANGQYLSCLPYLDVVKYIERGELVALNVPELNMERTLSFIWRSSMDQNPISDCIRREGIRMIKNHNVIR | not soluble |
| GMTQDNASGDQVSKQHKAFLRKLYLAHLMDDARHNLLSLGKLTGMPRRTLQDAIASFADIGIEVEFVQDGERHNAGYYRIRTWGPISSAWMDTHVDEVKSLLGVDDAVGQATAGNGA | soluble |
| MNSSTANKQKGIQLIPFTVDKVVEQVNEIPPGVQLIHAPQVWEKSAKGKDIVVAVLDTGCDMNHIDLKDRIIGGRNFTKDYEGDPNIYLDNNGHGTHVAGTIAATENGVGVLGVAPLAKMLVLKVLAGDGSGSYEQIIEAIHYAVNWRGPNKERVRVISMSLGGPQDVPELHEAIQNAVKQDVLVVCAAGNNGDCNDNTEELDFPGAYSEVIEVGAVNLERKIACFSNSNQEIDLVAPGDEILSTYPEGKYAVLSGTSMATPHVAGALALLIKQCEREYGRKLSEPEIYAQLIKRTVPLGYERTSEGNGLIDLLKE | not soluble |
| MRDKTLKAILAHAEAEHPKECCGVVAQKSRVEKYFPCENLATNPTEQFHLDPTGYVEAEDWGTITAIVHSHPDATTQPSELDMAQCDNNELPWHIVSWPEGDLRTIQPRGDLPLVGREFVLGHTDCWGLIMSYFRQTHDIELKDYRVDRHWWESGTENFYMDNWYECGFREFSGPAQPGDLIIMQVSAPVANHGGILLEDGMLLHHPYGQLSQRVPYGGYWQERTMKVVRYEISQL | not soluble |
| STSTFNPRECKLSKQEGQNYGFFLRIEKDTEGHLVRVVEKCSPAEKAGLQDGDRVLRINGVFVDKEEHMQVVDLVRKSGNSVTLLVLDGDSYEKAVKTRVDLKELGQSQKEQGLSDNILSPVMNGGVQTWTQPRLCYLVKEGGSYGFSLKTVQGKKGVYMTDITPQGVAMRAGVLADDHLIEVNGENVEDASHEEVVEKVKKSGSRVMFLLVDKETDKRHVEQKIQFKRETASLKLLPHQPRIVEMKKGSNGYGFYLRAGSEQKGQIIKDIDSGSPAEEAGLKNNDLVVAVNGESVETLDHDSVVEMIRKGGDQTSLLVVDKETDNMYRLAHFSPFLYYQSQELPNGSVKEAPAPTPTSLEVSSPPDTTEEVDHKPKLCRLAKGENGYGFHLNAIRGLPGSFIKEVQKGGPADLAGLEDEDVIIEVNGVNVLDEPYEKVVDRIQSSGKNVTLLVCGKKAYDYFQAKKIPIVSSLADPLDTPPDSKEGIVVESNHDSHMAKERAHSTASHSSSNSEDTEM | soluble |
| MSLQLPISQYNELLQKKLEKLTALLHPFNAPDIQVFDSPTSHYRMRAEFRIWHEQDDFYHIMFDQATLQRYRVDEFPIASMLINRMMQTLLPLLKQQEVLHKKLFQIDYLSTLSNKIIVSLLYHKTLTEEWESAAKNLKDLLEKQDFDVQIIGRASKQKICFEQDYVDEVLPVNGRNYVYRQVENSFTQPNATVNCKMLEWAIDCTQNSEGDLLELYCGNGNFSIALAQNFRKVLATEIAKPSVAAAQFNIAENKVDNLQIIRMSAEEFTQAMNGVRAFNRLKGIDLKSYECNTIFVDPPRAGLDPDTVKLVQNYDRILYISCNPHTLCDNLVELSKTHRIEKAALFDQFPYTDHMESGLWLIRKEGHHHHHH | soluble |
| MGSDKIHHHHHHMFSQTIFFGMKQSARGVSVAFSTLQEASMHKRVLIQAASALLALQFMAVPVFAAGSSGGGSDQTVTQCKKGEVWDKKKKKCVAPQEGMLDDDSIYDAGHALAMAGRYDEAISVLTLAANKQDPRILNYLGYSHRHSGRVTVGLGYYEEALRIDPNYTLVREYLGEAHLQIGDLAGAQQQLMEIEKRTGKGSREYGMLSEQIDHFMRS | not soluble |
| MNNELPDDIELLKAMLRKQQSRLRQYACQVAGYEQEIERLKAQLDRLRRMLFGQSSEKKRHKLENQIRQAEKRLSELENRLNTARNLLEDASSVTDSPDTSPPSENPIASKPESPGRKSSRKPLPAELPRETHRLLPAETSCPACGGVLKEMGETISEQLDIINTAFKVIETIRPKLACSRCDVIGTTSS | not soluble |
| MALPKPSDGTLPAEVQGRGQRRRLVWTPSQSKALQACFERNPYPGITTRERLAQAIGIPEPRVQILFQNERSCQLRQHWH | soluble |
| MGSDKIHHHHHHMKYKNLFFDLDDTIWAFSRNARDTFEEVYQKYSFDRYFDSFDHYYTLYQRRNTELWLEYGEGKVTKEELNRQRFFYPLQAVGVEDEALAERFSEDFFAIIPTKSGLMPHAKEVLEYLAPQYNLYILSNGFRELQSRKMRSAGVDRYFKKIILSEDLGVLKPRPEIFHFALSATASALRESLMIGDSWEADITGAHGVGMHQAFYNVTERTVFPFQPTYHIHSLKELMNLL | not soluble |
